These results are taken from publication PMC2635752.

In experiment [1] the target is growth-associated protein GAP-43 (mouse (endogenous in N1E-115)) (UniProt P06837). In words: cross-linking + co-IP; cells lysed in 1% NP-40 substitute buffer first; 1 mM DSP added to the low-speed supernatant (15 min, room temperature); glycine and SDS added; 100,000 × g supernatant; monoclonal anti-GAP-43; two-dimensional gel; spots counted, calmodulin cpm divided by 9/4.

The target is the same in experiment [2]. In words: cross-linking + co-IP; 1 mM DSP added to living [35S]-labeled differentiated N1E-115 cells (15 min, room temperature, KRH); lysis in SDS, then NP-40 lysis buffer; 100,000 × g supernatant; monoclonal anti-GAP-43 (clone 91E12) and protein G plus agarose; crosslinks cleaved; two-dimensional gel, fluorography; spots cut out and counted, calmodulin cpm divided by 9/4.

Chain of UniProt P06837 (P06837 whole entry): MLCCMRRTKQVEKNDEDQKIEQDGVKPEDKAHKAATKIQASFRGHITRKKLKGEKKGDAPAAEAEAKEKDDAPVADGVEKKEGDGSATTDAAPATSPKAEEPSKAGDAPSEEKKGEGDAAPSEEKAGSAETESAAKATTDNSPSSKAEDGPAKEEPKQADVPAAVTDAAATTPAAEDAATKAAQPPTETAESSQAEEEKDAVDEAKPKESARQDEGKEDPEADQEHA

Take “calmodulin (from UniProt P0DP26 1-149) (natural protein)”: in experiment [1], the calmodulin as percent of the GAP-43 in the immunoprecipitate is 39% and the radioactivity of calmodulin in the anti-GAP-43 immunoprecipitate (divided by 9/4) came to 643 cpm. Further, in experiment [2], the calmodulin as percent of the GAP-43 in the immunoprecipitate worked out at 14%, the percent of the total GAP-43 crosslinked to calmodulin stood at 25% and the radioactivity of calmodulin in the anti-GAP-43 immunoprecipitate (divided by 9/4) stood at 278 cpm.
